In patent US20130089516:
Substitutions are numbered along the chain they refer to.

Experiments:
[1] = molecular target: T1, mIL-2/MMP2cs/4x linker/mIL-2Rα + 6His (UniProt P04351)
T1 sequence: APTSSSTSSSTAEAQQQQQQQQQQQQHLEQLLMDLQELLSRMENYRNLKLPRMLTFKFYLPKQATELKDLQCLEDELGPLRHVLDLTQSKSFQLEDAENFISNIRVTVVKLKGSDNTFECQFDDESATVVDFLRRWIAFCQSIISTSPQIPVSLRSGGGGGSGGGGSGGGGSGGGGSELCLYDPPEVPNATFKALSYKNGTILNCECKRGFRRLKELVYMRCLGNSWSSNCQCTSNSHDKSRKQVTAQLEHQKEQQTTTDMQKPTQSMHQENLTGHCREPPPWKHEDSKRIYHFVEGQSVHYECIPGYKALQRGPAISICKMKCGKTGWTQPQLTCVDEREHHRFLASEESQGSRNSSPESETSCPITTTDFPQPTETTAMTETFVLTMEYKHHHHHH

[2] = molecular target: T2, mIL-2/MMP3-2cs/4x linker/mIL-2Rα + 6His (UniProt P04351)
T2 sequence: T1 sequence with I150V, V152L, R155Y

[3] = molecular target: T3, mIL-2/MMP4-1cs/4x linker/mIL-2Rα + 6His (UniProt P04351)
T3 sequence: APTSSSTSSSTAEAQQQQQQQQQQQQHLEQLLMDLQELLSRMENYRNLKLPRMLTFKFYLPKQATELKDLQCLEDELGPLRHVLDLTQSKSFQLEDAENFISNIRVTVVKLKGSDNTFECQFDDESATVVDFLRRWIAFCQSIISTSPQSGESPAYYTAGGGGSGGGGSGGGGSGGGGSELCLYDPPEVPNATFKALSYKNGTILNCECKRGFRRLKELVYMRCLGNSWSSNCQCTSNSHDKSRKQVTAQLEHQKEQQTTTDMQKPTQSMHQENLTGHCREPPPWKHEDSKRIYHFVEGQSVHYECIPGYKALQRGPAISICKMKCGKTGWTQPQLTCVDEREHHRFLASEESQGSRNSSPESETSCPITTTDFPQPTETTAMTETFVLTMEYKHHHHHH

[4] = molecular target: T4, mIL-2/MMP1cs/4x linker/mIL-2Rα + 6His (UniProt P04351)
T4 sequence: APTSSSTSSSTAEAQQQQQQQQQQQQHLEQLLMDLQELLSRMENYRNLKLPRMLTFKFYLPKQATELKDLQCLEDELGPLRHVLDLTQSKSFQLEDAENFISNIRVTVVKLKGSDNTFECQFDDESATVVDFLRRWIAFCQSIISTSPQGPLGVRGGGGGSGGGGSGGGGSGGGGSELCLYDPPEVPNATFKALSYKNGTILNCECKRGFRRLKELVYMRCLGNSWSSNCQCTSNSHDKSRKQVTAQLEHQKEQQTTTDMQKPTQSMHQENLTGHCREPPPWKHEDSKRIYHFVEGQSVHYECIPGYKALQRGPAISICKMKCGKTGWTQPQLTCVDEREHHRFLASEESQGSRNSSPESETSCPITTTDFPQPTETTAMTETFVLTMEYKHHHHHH

[5] = molecular target: hIL-2/PSAcs/2x linker/scFv + 6His (UniProt P60568)
[6] = molecular target: mIL-2/PSAcs/2x linker/mIL-2Rα (UniProt P04351)
[7] = molecular target: mouse IL-2/PSAcs/Mip-1α fusion protein (UniProt P04351)
[8] = molecular target: mIL-2/PSAcs/4x linker/mIL-2Rα (UniProt P04351)

Chain of matrix metalloproteinase 2 (MMP2), APMA-activated (R & D Systems) (P08253 110-660): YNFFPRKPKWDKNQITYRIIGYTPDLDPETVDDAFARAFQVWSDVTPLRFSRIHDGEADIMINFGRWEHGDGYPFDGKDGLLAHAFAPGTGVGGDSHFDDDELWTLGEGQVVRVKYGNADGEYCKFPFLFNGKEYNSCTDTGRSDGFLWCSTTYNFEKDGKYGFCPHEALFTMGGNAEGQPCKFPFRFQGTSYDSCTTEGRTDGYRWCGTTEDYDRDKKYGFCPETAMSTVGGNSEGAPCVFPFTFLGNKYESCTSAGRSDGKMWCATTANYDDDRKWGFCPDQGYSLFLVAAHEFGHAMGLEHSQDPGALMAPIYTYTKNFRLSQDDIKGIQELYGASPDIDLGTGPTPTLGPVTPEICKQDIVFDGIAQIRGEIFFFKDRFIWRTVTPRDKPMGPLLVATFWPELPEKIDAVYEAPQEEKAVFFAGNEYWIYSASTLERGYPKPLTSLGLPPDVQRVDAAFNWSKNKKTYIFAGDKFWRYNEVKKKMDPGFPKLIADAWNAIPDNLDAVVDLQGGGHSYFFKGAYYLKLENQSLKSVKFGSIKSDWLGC
Chain of hIL-2/PSAcs/2x linker/scFv + 6His (P60568 whole entry, looked up): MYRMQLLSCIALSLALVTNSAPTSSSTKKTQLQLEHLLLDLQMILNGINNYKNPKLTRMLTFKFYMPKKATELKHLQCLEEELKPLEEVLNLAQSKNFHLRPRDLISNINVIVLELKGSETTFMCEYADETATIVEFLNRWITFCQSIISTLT

Question: Which results are given for “matrix metalloproteinase 2 (MMP2), APMA-activated (R & D Systems)”?
Answer: cleavage by activated MMP2, immunoblot [1]: These cleavage sites were also capable of being cleaved using activated MMP2 and MMP9; cleavage by activated MMP2, immunoblot [2]: These cleavage sites were also capable of being cleaved using activated MMP2 and MMP9; cleavage by MMP2, anti-IL-2 immunoblot [3]: the fusion protein can be cleaved by MMP2 or MMP9; cleavage by activated MMP2, immunoblot [4]: These cleavage sites were also capable of being cleaved using activated MMP2 and MMP9

Question: Which results are given for “matrix metalloproteinase 9 (MMP9), APMA-activated (R & D Systems)”?
Answer: cleavage by activated MMP9, immunoblot [1]: These cleavage sites were also capable of being cleaved using activated MMP2 and MMP9; cleavage by activated MMP9, immunoblot [2]: These cleavage sites were also capable of being cleaved using activated MMP2 and MMP9; cleavage by MMP9, anti-IL-2 immunoblot [3]: the fusion protein can be cleaved by MMP2 or MMP9; cleavage by activated MMP9, immunoblot [4]: These cleavage sites were also capable of being cleaved using activated MMP2 and MMP9

Question: With “prostate specific antigen (PSA), purified (Cortex Biochem)” as the substance, how does the “cleavage by PSA, anti-human IL-2 immunoblot” value [5] read?
Answer: the human IL-2/PSAcs/human scFv-2 fusion protein can be cleaved by PSA

Question: And the “cleavage by PSA, anti-IL-2 immunoblot” value [6]?
Answer: Immunoblot analyses revealed that the fusion proteins could be cleaved by PSA

Question: What about the “cleavage by PSA, anti-IL-2 immunoblot” value [7] of the same substance?
Answer: the IL-2/Mip1α fusion protein could be cleaved by PSA

Question: And the “cleavage by PSA, anti-IL-2 immunoblot” value [8]?
Answer: Immunoblot analyses revealed that the fusion proteins could be cleaved by PSA
